This note sets out measurements from patent US11034762 (CENTIVAX, dated 2021).

For experiment [1], the target named is SARS-CoV-2 Receptor Binding Domain (RBD) protein (SARS-CoV-2, UniProt P0DTC2 319-541).
The target of experiment [2] is T1, MERS Receptor Binding Domain (RBD) protein (MERS virus, UniProt K9N5Q8 367-606).
T1 construct: also called Middle East Respiratory Syndrome (MERS) virus
T1 sequence: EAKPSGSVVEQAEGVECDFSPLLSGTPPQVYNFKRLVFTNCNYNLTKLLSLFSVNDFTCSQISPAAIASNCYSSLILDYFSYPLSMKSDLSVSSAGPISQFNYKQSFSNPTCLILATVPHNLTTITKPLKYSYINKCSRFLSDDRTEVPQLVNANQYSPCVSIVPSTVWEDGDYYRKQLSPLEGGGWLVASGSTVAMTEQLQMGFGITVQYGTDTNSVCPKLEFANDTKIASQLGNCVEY
In words: SPR; clone listed as COV2 only at the 21st table, row 28, column 3.

The target in experiment [3] is T2, SARS-CoV-1 Receptor Binding Domain (RBD) protein (SARS-CoV-1, UniProt P59594 306-527).
T2 construct: also called SARS1
The description is as above.

Experiment [4] addresses T1, MERS Receptor Binding Domain (RBD) …. The experiment can be described thus: SPR; clone listed as COV2 only at the 21st table, row 26, column 3.
In experiment [5] the target is T2, SARS-CoV-1 Receptor Binding Domain …. The experiment is described as above.
For experiment [6], the target named is T1, MERS Receptor Binding Domain (RBD) …. In words: SPR; clone listed as COV2 only at the 21st table, row 33, column 3.
The target in experiment [7] is T2, SARS-CoV-1 Receptor Binding Domain …. Described as above.
In experiment [8] the target is T1, MERS Receptor Binding Domain (RBD) …. In words: SPR; clone listed as COV2 only at the 21st table, row 34, column 3.
The target in experiment [9] is T2, SARS-CoV-1 Receptor Binding Domain …. The description is as above.
Experiment [10] has as its target T1, MERS Receptor Binding Domain (RBD) …. In words: SPR; clone listed as COV2 only at the 21st table, row 37, column 3.
For experiment [11], the target named is T2, SARS-CoV-1 Receptor Binding Domain …. Described as above.
Experiment [12] concerns the target T1, MERS Receptor Binding Domain (RBD) …. The experiment can be described thus: SPR; clone listed as COV2 only at the 21st table, row 32, column 3.
Experiment [13] addresses T2, SARS-CoV-1 Receptor Binding Domain …. The description is as above.
The target in experiment [14] is T1, MERS Receptor Binding Domain (RBD) …. In words: SPR; clone listed as COV2 only at the 21st table, row 27, column 3.
The target of experiment [15] is T2, SARS-CoV-1 Receptor Binding Domain …. Described as above.
For experiment [16], the target named is T1, MERS Receptor Binding Domain (RBD) …. In words: SPR; clone listed as COV2 only at the 21st table, row 29, column 3.
In experiment [17] the target is T2, SARS-CoV-1 Receptor Binding Domain …. Described as above.
The target in experiment [18] is T1, MERS Receptor Binding Domain (RBD) …. In words: SPR; clone listed as COV2 only at the 21st table, row 30, column 3.
Experiment [19] has as its target T2, SARS-CoV-1 Receptor Binding Domain …. The description is as above.
Experiment [20] concerns the target T1, MERS Receptor Binding Domain (RBD) …. In words: SPR; clone listed as COV2 only at the 21st table, row 36, column 3.
Experiment [21] addresses T2, SARS-CoV-1 Receptor Binding Domain …. The description is as above.
Experiment [22] deals with T1, MERS Receptor Binding Domain (RBD) …. In words: SPR; clone listed as COV2 only at the 21st table, row 35, column 3.
The target in experiment [23] is T2, SARS-CoV-1 Receptor Binding Domain …. The description is as above.
Experiment [24] concerns the target T1, MERS Receptor Binding Domain (RBD) …. The experiment can be described thus: SPR; clone listed as COV2 only at the 21st table, row 43, column 3.
For experiment [25], the target named is T2, SARS-CoV-1 Receptor Binding Domain …. The description is as above.
Experiment [26] concerns the target T1, MERS Receptor Binding Domain (RBD) …. The experiment can be described thus: SPR; clone listed as COV2 only at the 21st table, row 8, column 3.
Experiment [27] addresses T2, SARS-CoV-1 Receptor Binding Domain …. The description is as above.

Positions count from the first letter of the chain named.

B1: COVID19_P09_G02 (scFv, V domains shown)
VH: QVQLVQSGAEVKKPGSSVKVSCKASGGTFSSYAISWVRQAPGQGLEWMGIIYPGDSTTNYSQKFQGRVTITADESTSTAYMELSSLRSEDTAVYYCAGHWGISTPMDVWGQGTLVTVSS
VL: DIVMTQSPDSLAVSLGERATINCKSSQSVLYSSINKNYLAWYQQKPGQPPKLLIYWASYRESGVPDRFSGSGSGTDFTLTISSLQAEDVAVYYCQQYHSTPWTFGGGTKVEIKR
In the case of B1, in [1], binding was characterised by a dissociation constant (Kd) of 1.92 nM, the koff is 0.000262 s⁻¹ and the kon is 136000 M⁻¹ s⁻¹. Besides, in experiment [2], the binding result is reported as “no binding (tested: up to 300 nM)”. In experiment [3], the binding result is reported as “no binding (tested: up to 300 nM)”.

B2: COVID19_P09_C09 (scFv, V domains shown)
VH: B1 VH with Y52D, G54S, D55G, S56G, T57S, N59S, S61A, K63Q, H99G, W100S
VL: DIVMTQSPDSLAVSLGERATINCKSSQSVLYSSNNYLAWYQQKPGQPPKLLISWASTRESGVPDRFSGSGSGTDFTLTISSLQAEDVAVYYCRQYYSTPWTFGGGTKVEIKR
Regarding B2, in experiment [1], binding was characterised by a dissociation constant (Kd) of 0.99 nM, the koff came to 0.000261 s⁻¹ and the kon amounted to 264000 M⁻¹ s⁻¹. For the same molecule, in [4], the binding result is listed as “no binding (tested: up to 300 nM)”. Further, the binding result in [5] is on record as “no binding (tested: up to 300 nM)”.

B3: COVID19_P21_A12 (scFv, V domains shown)
VH: B1 VH with I50S, I51V, Y52I, G54V, D55F, S56G, T57R, T58P, S61A, H99E
VL: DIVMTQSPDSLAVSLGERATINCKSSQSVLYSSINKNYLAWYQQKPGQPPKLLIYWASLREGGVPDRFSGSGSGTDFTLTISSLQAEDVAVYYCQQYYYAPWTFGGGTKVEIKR
In [1], B3 came in with a Kd of 6.01 nM, a koff of 0.000911 s⁻¹ and a kon of 152000 M⁻¹ s⁻¹. In addition, the binding result in [6] was “no binding (tested: up to 300 nM)”. The binding result in experiment [7] was “no binding (tested: up to 300 nM)”.

B4: COVID19_P21_B08 (scFv, V domains shown)
VH: B1 VH with I50V, Y52N, P53T, D55G, S56G, T57S, T58V, N59T, S61A
VL: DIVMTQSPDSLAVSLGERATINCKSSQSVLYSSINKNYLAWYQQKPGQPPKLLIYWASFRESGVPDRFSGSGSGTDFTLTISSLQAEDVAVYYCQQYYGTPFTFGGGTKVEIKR
For B4, in experiment [8], the binding result is on record as “no binding (tested: up to 300 nM)”. In addition, the binding result in experiment [9] is “no binding (tested: up to 300 nM)”. In addition, in experiment [1], the Kd is 2.95 nM, the koff came out at 0.000344 s⁻¹ and the kon amounted to 117000 M⁻¹ s⁻¹.

B5: COVID19_P22_B12 (scFv, V domains shown)
VH: B1 VH with F29L, T57E, N59R, H99G, W100S, M106R, D107S
VL: DIVMTQSPDSLAVSLGERATINCKSSRILSYSPDNKNYLAWYQQKPGQPPKLLIYWASTRESGVPDRFSGSGSGTDFTLTISSLQAEDVAVYYCQQSYITPYTFGGGTKVEIKR
In the case of B5, in experiment [10], the binding result is “no binding (tested: up to 300 nM)”. Besides, the binding result in experiment [11] is on record as “no binding (tested: up to 300 nM)”. In experiment [1], the affinity, expressed as Kd, was 4.24 nM; the koff came out at 0.00036 s⁻¹; the kon was found to be 85000 M⁻¹ s⁻¹.

B6: COVID19_P21_F04 (scFv, V domains shown)
VH: B1 VH with I50Q, Y52N, G54S, D55G, S56D, T57S, N59R, S61A, H99G, W100S
VL: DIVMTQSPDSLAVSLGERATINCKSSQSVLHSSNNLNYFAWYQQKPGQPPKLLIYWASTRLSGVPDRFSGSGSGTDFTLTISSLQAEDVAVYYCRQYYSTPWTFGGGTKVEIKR
Turning to B6, the binding result in experiment [12] is “no binding (tested: up to 300 nM)”. The binding result in experiment [13] was “no binding (tested: up to 300 nM)”. Moreover, in experiment [1], the Kd was determined as 8.81 nM, the koff was found to be 0.00037 s⁻¹ and the kon came to 41900 M⁻¹ s⁻¹.

B7: COVID19_P21_F11 (scFv, V domains shown)
VH: B1 VH with T58A, N59R, H99G, W100S, P105L, M106Y
VL: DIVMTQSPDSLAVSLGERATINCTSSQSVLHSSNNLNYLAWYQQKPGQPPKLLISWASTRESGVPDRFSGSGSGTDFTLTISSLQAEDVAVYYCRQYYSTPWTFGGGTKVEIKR
Turning to B7, in experiment [14], the binding result is recorded as “no binding (tested: up to 300 nM)”. Moreover, the binding result in experiment [15] is listed as “no binding (tested: up to 300 nM)”. In experiment [1], this molecule registered a dissociation constant (Kd) of at most 1.1 nM, a koff of at most 5.7e-05 s⁻¹ and a kon of 52300 M⁻¹ s⁻¹.

B8: COVID19_P09_E05 (scFv, V domains shown)
VH: B1 VH with N59R, A97Y, G98S, H99G, W100S
VL: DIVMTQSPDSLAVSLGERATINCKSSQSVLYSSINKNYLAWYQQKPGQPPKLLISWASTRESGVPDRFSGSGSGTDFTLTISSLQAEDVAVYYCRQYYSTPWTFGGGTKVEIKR
Turning to B8, in experiment [1], the Kd was 0.2 nM, the dissociation rate constant (koff) is 5.7e-05 s⁻¹ and the kon is 305000 M⁻¹ s⁻¹. In addition, in [16], the binding result is “no binding (tested: up to 300 nM)”. In experiment [17], the binding result is given as “no binding (tested: up to 300 nM)”.

B9: COVID19_P10_B06 (scFv, V domains shown)
VH: B1 VH with N59R, A97Y, G98S, H99G, W100S
VL: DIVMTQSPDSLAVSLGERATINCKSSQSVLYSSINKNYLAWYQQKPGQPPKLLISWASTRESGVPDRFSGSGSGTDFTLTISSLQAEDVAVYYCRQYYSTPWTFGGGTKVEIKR
In experiment [1], B9 came in with a Kd of 0.29 nM, a koff of 5.7e-05 s⁻¹ and a kon of 200000 M⁻¹ s⁻¹. In addition, the binding result in experiment [18] was “no binding (tested: up to 300 nM)”. In experiment [19], the binding result was “no binding (tested: up to 300 nM)”.

B10: COVID19_P09_A09 (scFv, V domains shown)
VH: B1 VH with N59R, A97Y, G98S, H99G, W100S
VL: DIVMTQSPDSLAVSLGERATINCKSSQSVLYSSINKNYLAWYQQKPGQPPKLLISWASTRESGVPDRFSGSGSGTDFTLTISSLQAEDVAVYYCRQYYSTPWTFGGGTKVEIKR
In experiment [1], B10 displayed a Kd of 0.5 nM, a koff of 5.7e-05 s⁻¹ and a kon of 109000 M⁻¹ s⁻¹. For the same molecule, the binding result in [20] was “no binding (tested: up to 300 nM)”. Further, in [21], the binding result was “no binding (tested: up to 300 nM)”.

B11: COVID19_P21_F08 (scFv, V domains shown)
VH: QVQLVQSGAEVKKPGSSVKVSCKASGGTFSTYAFNWVRQAPGQGLEWMGVINTGGGSVTYAQKFQGRVTITADESTSTAYMELSSLRSEDTAVYYCAGGSGISTPGAVWGQGTLVTVSS
VL: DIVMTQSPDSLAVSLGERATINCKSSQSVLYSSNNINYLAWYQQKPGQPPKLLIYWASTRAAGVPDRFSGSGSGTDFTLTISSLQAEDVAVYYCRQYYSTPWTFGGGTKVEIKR
B11: the binding result in [22] is reported as “no binding (tested: up to 300 nM)”. For the same molecule, the binding result in experiment [23] is “no binding (tested: up to 300 nM)”. Further, in [1], binding was characterised by a dissociation constant (Kd) of 16.3 nM, the off-rate constant (koff) stood at 0.000893 s⁻¹ and the on-rate constant (kon) worked out at 54900 M⁻¹ s⁻¹.

B12: COVID19_P22_B04 (scFv, V domains shown)
VH: QVQLVQSGAEVKKPGSSVKVSCKASGYGFITYWIGWVRQAPGQGLEWMGIIYPGDSETRYAQKFQGRVTITADESTSTAYMELSSLRSEDTAVYYCAGGEGISTPMDVWGQGTLVTVSS
VL: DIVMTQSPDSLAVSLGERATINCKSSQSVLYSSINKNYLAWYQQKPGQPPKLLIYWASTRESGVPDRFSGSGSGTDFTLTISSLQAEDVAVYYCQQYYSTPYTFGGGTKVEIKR
In [1], B12 came in with a Kd of 26.1 nM, a koff of 0.015 s⁻¹ and a kon of 570000 M⁻¹ s⁻¹. Besides, the binding result in experiment [24] is reported as “no binding (tested: up to 300 nM)”. The binding result in [25] is given as “no binding (tested: up to 300 nM)”.

B13: COVID19_P22_G12 (scFv, V domains shown)
VH: B12 VH with Y27G, A61S, E100S
VL: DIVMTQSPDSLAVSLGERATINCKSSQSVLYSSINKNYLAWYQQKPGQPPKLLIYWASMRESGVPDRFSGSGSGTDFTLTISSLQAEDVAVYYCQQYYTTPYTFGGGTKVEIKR
Turning to B13, the binding result in experiment [26] is “no binding (tested: up to 300 nM)”. Further, the binding result in [27] is reported as “no binding (tested: up to 300 nM)”. In [1], this molecule registered a Kd of 38.3 nM, a koff of 0.016 s⁻¹ and a kon of 410000 M⁻¹ s⁻¹.
